According to patent US20170112928A1:
Each block holds one molecule with its values, some of them ahead of it.

Biological target: hTEM8-AP (human) (UniProt Q9H6X2)
Experiment: Biocore (SPR) affinity measurement of anti-TEM8 Fab

Sequence of hTEM8-AP (human) (Q9H6X2 33-321): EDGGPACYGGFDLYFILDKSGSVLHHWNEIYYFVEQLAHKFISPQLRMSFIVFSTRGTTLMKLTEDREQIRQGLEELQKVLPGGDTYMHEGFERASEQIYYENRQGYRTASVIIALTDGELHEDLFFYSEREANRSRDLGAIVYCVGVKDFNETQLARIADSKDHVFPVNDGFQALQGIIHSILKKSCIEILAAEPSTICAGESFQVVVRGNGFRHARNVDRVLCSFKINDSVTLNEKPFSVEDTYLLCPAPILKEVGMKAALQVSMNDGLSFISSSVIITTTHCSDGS

Molecule: M830 anti-TEM8 fragment antigen-binding (Fab)
- Kd: 1.57 nM
- koff: 0.000953 s⁻¹
- kon: 607000 M⁻¹ s⁻¹

- Kd: 0.0591 nM
- koff: 0.00018 s⁻¹
- kon: 3.05e+06 M⁻¹ s⁻¹
B1: M825 anti-TEM8 fragment antigen-binding (Fab) (Fab, V domains shown)
VH: QVQLVQSGAEVKKPGTSVKVSCKVPGYTFSSYAISWVRQAPGQGLEWMGGIIPIFGTTNYAQKFQGRVTITGEESTSTVYMELSSLRSEDTAVYYCARDTDYMFDYWGQGTLVTVSS
VL: SSELTQDPVVSVALGETVSITCQGDNLRDFYASWYQQKPGQAPLLVMYGKNRRPSGIPDRFSGSTSGNTLSLTITGAQAEDEADYYCSSRDNSKHVVFGGGTKVTVL
